Data taken from patent publication US20020192640A1 (Boehringer Ingelheim, published 2002).

Target: T1, 4K-6H-NS2/3 (904-1206)st-4K (Hepatitis C virus genotype 1b)
T1 chain: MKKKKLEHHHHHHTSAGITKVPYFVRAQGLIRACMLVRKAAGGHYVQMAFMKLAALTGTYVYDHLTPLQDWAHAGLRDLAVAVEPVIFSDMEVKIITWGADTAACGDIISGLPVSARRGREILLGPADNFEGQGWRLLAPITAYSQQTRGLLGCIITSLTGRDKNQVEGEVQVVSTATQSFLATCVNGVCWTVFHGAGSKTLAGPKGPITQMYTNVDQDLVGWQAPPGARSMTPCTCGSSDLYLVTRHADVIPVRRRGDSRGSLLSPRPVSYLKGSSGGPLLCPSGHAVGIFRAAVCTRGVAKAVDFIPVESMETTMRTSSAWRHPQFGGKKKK
Assay: cell-based or functional assay

First: APITAYSQQT [Peptide 3, APITAYSQQT]
Second: KGWRLLAPITAY [Peptide 4, KGWRLL-APITAY]
The “IC50, inhibition of NS2/3 autocleavage” value of the first is higher: over 1000 µM for the first, 630 µM for the second.

Compared with APITAY [Peptide 5, APITAY], SFEGQGWRLL [Peptide 2, SFEGQGWRLL] is 11-fold lower in “IC50, inhibition of NS2/3 autocleavage” value: 1000 µM for the first, 90 µM for the second.

For SFEGQGWRLLAPITAYSQQT [Peptide 1, SFEGQGWRLL-APITAYSQQT], the “IC50, inhibition of NS2/3 autocleavage” value was 270 µM.
